T1: human CD30 (commercial, conjugated to digoxigenin) (human, UniProt P28908 19-379, limits assumed, conjugated to digoxigenin (DIG))
T1 sequence (looked up): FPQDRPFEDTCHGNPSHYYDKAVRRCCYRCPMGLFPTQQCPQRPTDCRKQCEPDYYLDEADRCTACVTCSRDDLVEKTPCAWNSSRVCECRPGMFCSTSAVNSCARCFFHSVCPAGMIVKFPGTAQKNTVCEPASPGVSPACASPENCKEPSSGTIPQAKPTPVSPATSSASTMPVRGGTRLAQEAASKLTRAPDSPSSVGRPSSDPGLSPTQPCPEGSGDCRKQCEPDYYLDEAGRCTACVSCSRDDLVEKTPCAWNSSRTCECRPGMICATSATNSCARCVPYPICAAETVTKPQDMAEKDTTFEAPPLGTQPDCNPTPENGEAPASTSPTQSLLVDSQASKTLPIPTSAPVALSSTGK


Each binder was assayed against T1, human CD30 (commercial, conjugated to …) (assay: AlphaScreen competition).

Binder | Fold IC50 vs H3/L3 [fold]
AC10 H3.1/L3 (antibody, IgG1, name in Kabat numbering, V domains shown) VH: EIQLVQSGPEVKKPGASVKVSCKASGYTFTDYYITWVRQAPGQGLEWMGWIYPGSGNTKYNEKFQGRFVFSVDTSASTAYLQISSLKAEDTAVYFCANYGNYWFAYWGQGTLVTVSS VL: DIVLTQSPDSLAVSLGERATINCKASQSVDFDGDSYMNWYQQKPGQPPKVLIYAASNLESGIPARFSGSGSGTDFTLTINSLEAEDAATYYCQQSNEDPWTFGGGTKVEIK | 1
AC10 H3.2/L3 (antibody, IgG1, name in Kabat numbering, V domains shown) VH: QLQLVQSGPEVKKPGASVKVSCKASGYTFTDYYITWVRQAPGQGLEWMGWIYPGSGNTKYNEKFQGRFVFSVDTSASTAYLQISSLKAEDTAVYFCANYGNYWFAYWGQGTLVTVSS VL: DIVLTQSPDSLAVSLGERATINCKASQSVDFDGDSYMNWYQQKPGQPPKVLIYAASNLESGIPARFSGSGSGTDFTLTINSLEAEDAATYYCQQSNEDPWTFGGGTKVEIK | 2.76
AC10 H3.3/L3 (antibody, IgG1, name in Kabat numbering, V domains shown) VH: QMQLVQSGPEVKKPGASVKVSCKASGYTFTDYYITWVRQAPGQGLEWMGWIYPGSGNTKYNEKFQGRFVFSVDTSASTAYLQISSLKAEDTAVYFCANYGNYWFAYWGQGTLVTVSS VL: DIVLTQSPDSLAVSLGERATINCKASQSVDFDGDSYMNWYQQKPGQPPKVLIYAASNLESGIPARFSGSGSGTDFTLTINSLEAEDAATYYCQQSNEDPWTFGGGTKVEIK | 0.68
AC10 H3.4/L3 (antibody, IgG1, name in Kabat numbering, V domains shown) VH: QVQLVQSGPEVKKPGASVKVSCKASGYTFTDYYITWVRQAPGQGLEWMGWIYPGSGNTKYNEKFQGRFVFSVDTSASTAYLQISSLKAEDTAVYFCANYGNYWFAYWGQGTLVTVSS VL: DIVLTQSPDSLAVSLGERATINCKASQSVDFDGDSYMNWYQQKPGQPPKVLIYAASNLESGIPARFSGSGSGTDFTLTINSLEAEDAATYYCQQSNEDPWTFGGGTKVEIK | 1.28
AC10 H3.5/L3 (antibody, IgG1, name in Kabat numbering, V domains shown) VH: QIQLVQSGAEVKKPGASVKVSCKASGYTFTDYYITWVRQAPGQGLEWMGWIYPGSGNTKYNEKFQGRFVFSVDTSASTAYLQISSLKAEDTAVYFCANYGNYWFAYWGQGTLVTVSS VL: DIVLTQSPDSLAVSLGERATINCKASQSVDFDGDSYMNWYQQKPGQPPKVLIYAASNLESGIPARFSGSGSGTDFTLTINSLEAEDAATYYCQQSNEDPWTFGGGTKVEIK | 1.29
AC10 H3.6/L3 (antibody, IgG1, name in Kabat numbering, V domains shown) VH: QIQLVQSGPEVKKPGTSVKVSCKASGYTFTDYYITWVRQAPGQGLEWMGWIYPGSGNTKYNEKFQGRFVFSVDTSASTAYLQISSLKAEDTAVYFCANYGNYWFAYWGQGTLVTVSS VL: DIVLTQSPDSLAVSLGERATINCKASQSVDFDGDSYMNWYQQKPGQPPKVLIYAASNLESGIPARFSGSGSGTDFTLTINSLEAEDAATYYCQQSNEDPWTFGGGTKVEIK | 1.13
AC10 H3.7/L3 (antibody, IgG1, name in Kabat numbering, V domains shown) VH: QIQLVQSGPEVKKPGASVKVSCKVSGYTFTDYYITWVRQAPGQGLEWMGWIYPGSGNTKYNEKFQGRFVFSVDTSASTAYLQISSLKAEDTAVYFCANYGNYWFAYWGQGTLVTVSS VL: DIVLTQSPDSLAVSLGERATINCKASQSVDFDGDSYMNWYQQKPGQPPKVLIYAASNLESGIPARFSGSGSGTDFTLTINSLEAEDAATYYCQQSNEDPWTFGGGTKVEIK | 4.45
AC10 H3.8/L3 (antibody, IgG1, name in Kabat numbering, V domains shown) VH: QIQLVQSGPEVKKPGASVKVSCKASGYTFTGYYITWVRQAPGQGLEWMGWIYPGSGNTKYNEKFQGRFVFSVDTSASTAYLQISSLKAEDTAVYFCANYGNYWFAYWGQGTLVTVSS VL: DIVLTQSPDSLAVSLGERATINCKASQSVDFDGDSYMNWYQQKPGQPPKVLIYAASNLESGIPARFSGSGSGTDFTLTINSLEAEDAATYYCQQSNEDPWTFGGGTKVEIK | 1.4
AC10 H3.9/L3 (antibody, IgG1, name in Kabat numbering, V domains shown) VH: QIQLVQSGPEVKKPGASVKVSCKASGYTFTSYYITWVRQAPGQGLEWMGWIYPGSGNTKYNEKFQGRFVFSVDTSASTAYLQISSLKAEDTAVYFCANYGNYWFAYWGQGTLVTVSS VL: DIVLTQSPDSLAVSLGERATINCKASQSVDFDGDSYMNWYQQKPGQPPKVLIYAASNLESGIPARFSGSGSGTDFTLTINSLEAEDAATYYCQQSNEDPWTFGGGTKVEIK | 1.65
AC10 H3.11/L3 (antibody, IgG1, name in Kabat numbering, V domains shown) VH: QIQLVQSGPEVKKPGASVKVSCKASGYTFTDYGITWVRQAPGQGLEWMGWIYPGSGNTKYNEKFQGRFVFSVDTSASTAYLQISSLKAEDTAVYFCANYGNYWFAYWGQGTLVTVSS VL: DIVLTQSPDSLAVSLGERATINCKASQSVDFDGDSYMNWYQQKPGQPPKVLIYAASNLESGIPARFSGSGSGTDFTLTINSLEAEDAATYYCQQSNEDPWTFGGGTKVEIK | 0.73
AC10 H3.12/L3 (antibody, IgG1, name in Kabat numbering, V domains shown) VH: QIQLVQSGPEVKKPGASVKVSCKASGYTFTDYWITWVRQAPGQGLEWMGWIYPGSGNTKYNEKFQGRFVFSVDTSASTAYLQISSLKAEDTAVYFCANYGNYWFAYWGQGTLVTVSS VL: DIVLTQSPDSLAVSLGERATINCKASQSVDFDGDSYMNWYQQKPGQPPKVLIYAASNLESGIPARFSGSGSGTDFTLTINSLEAEDAATYYCQQSNEDPWTFGGGTKVEIK | 0
AC10 H3.13/L3 (antibody, IgG1, name in Kabat numbering, V domains shown) VH: QIQLVQSGPEVKKPGASVKVSCKASGYTFTDYYLTWVRQAPGQGLEWMGWIYPGSGNTKYNEKFQGRFVFSVDTSASTAYLQISSLKAEDTAVYFCANYGNYWFAYWGQGTLVTVSS VL: DIVLTQSPDSLAVSLGERATINCKASQSVDFDGDSYMNWYQQKPGQPPKVLIYAASNLESGIPARFSGSGSGTDFTLTINSLEAEDAATYYCQQSNEDPWTFGGGTKVEIK | 1.52
AC10 H3.14/L3 (antibody, IgG1, name in Kabat numbering, V domains shown) VH: QIQLVQSGPEVKKPGASVKVSCKASGYTFTDYYMTWVRQAPGQGLEWMGWIYPGSGNTKYNEKFQGRFVFSVDTSASTAYLQISSLKAEDTAVYFCANYGNYWFAYWGQGTLVTVSS VL: DIVLTQSPDSLAVSLGERATINCKASQSVDFDGDSYMNWYQQKPGQPPKVLIYAASNLESGIPARFSGSGSGTDFTLTINSLEAEDAATYYCQQSNEDPWTFGGGTKVEIK | 1.62
AC10 H3.16/L3 (antibody, IgG1, name in Kabat numbering, V domains shown) VH: QIQLVQSGPEVKKPGASVKVSCKASGYTFTDYYIGWVRQAPGQGLEWMGWIYPGSGNTKYNEKFQGRFVFSVDTSASTAYLQISSLKAEDTAVYFCANYGNYWFAYWGQGTLVTVSS VL: DIVLTQSPDSLAVSLGERATINCKASQSVDFDGDSYMNWYQQKPGQPPKVLIYAASNLESGIPARFSGSGSGTDFTLTINSLEAEDAATYYCQQSNEDPWTFGGGTKVEIK | 0.15
AC10 H3.17/L3 (antibody, IgG1, name in Kabat numbering, V domains shown) VH: QIQLVQSGPEVKKPGASVKVSCKASGYTFTDYYIHWVRQAPGQGLEWMGWIYPGSGNTKYNEKFQGRFVFSVDTSASTAYLQISSLKAEDTAVYFCANYGNYWFAYWGQGTLVTVSS VL: DIVLTQSPDSLAVSLGERATINCKASQSVDFDGDSYMNWYQQKPGQPPKVLIYAASNLESGIPARFSGSGSGTDFTLTINSLEAEDAATYYCQQSNEDPWTFGGGTKVEIK | 0.04
AC10 H3.18/L3 (antibody, IgG1, name in Kabat numbering, V domains shown) VH: QIQLVQSGPEVKKPGASVKVSCKASGYTFTDYYINWVRQAPGQGLEWMGWIYPGSGNTKYNEKFQGRFVFSVDTSASTAYLQISSLKAEDTAVYFCANYGNYWFAYWGQGTLVTVSS VL: DIVLTQSPDSLAVSLGERATINCKASQSVDFDGDSYMNWYQQKPGQPPKVLIYAASNLESGIPARFSGSGSGTDFTLTINSLEAEDAATYYCQQSNEDPWTFGGGTKVEIK | 0.13
AC10 H3.19/L3 (antibody, IgG1, name in Kabat numbering, V domains shown) VH: QIQLVQSGPEVKKPGASVKVSCKASGYTFTDYYISWVRQAPGQGLEWMGWIYPGSGNTKYNEKFQGRFVFSVDTSASTAYLQISSLKAEDTAVYFCANYGNYWFAYWGQGTLVTVSS VL: DIVLTQSPDSLAVSLGERATINCKASQSVDFDGDSYMNWYQQKPGQPPKVLIYAASNLESGIPARFSGSGSGTDFTLTINSLEAEDAATYYCQQSNEDPWTFGGGTKVEIK | 1.11
AC10 H3.20/L3 (antibody, IgG1, name in Kabat numbering, V domains shown) VH: QIQLVQSGPEVKKPGASVKVSCKASGYTFTDYYITWVRQAPGQALEWMGWIYPGSGNTKYNEKFQGRFVFSVDTSASTAYLQISSLKAEDTAVYFCANYGNYWFAYWGQGTLVTVSS VL: DIVLTQSPDSLAVSLGERATINCKASQSVDFDGDSYMNWYQQKPGQPPKVLIYAASNLESGIPARFSGSGSGTDFTLTINSLEAEDAATYYCQQSNEDPWTFGGGTKVEIK | 2.04
AC10 H3.21/L3 (antibody, IgG1, name in Kabat numbering, V domains shown) VH: QIQLVQSGPEVKKPGASVKVSCKASGYTFTDYYITWVRQAPGQRLEWMGWIYPGSGNTKYNEKFQGRFVFSVDTSASTAYLQISSLKAEDTAVYFCANYGNYWFAYWGQGTLVTVSS VL: DIVLTQSPDSLAVSLGERATINCKASQSVDFDGDSYMNWYQQKPGQPPKVLIYAASNLESGIPARFSGSGSGTDFTLTINSLEAEDAATYYCQQSNEDPWTFGGGTKVEIK | 2.6
AC10 H3.22/L3 (antibody, IgG1, name in Kabat numbering, V domains shown) VH: QIQLVQSGPEVKKPGASVKVSCKASGYTFTDYYITWVRQAPGQGLEWMGIIYPGSGNTKYNEKFQGRFVFSVDTSASTAYLQISSLKAEDTAVYFCANYGNYWFAYWGQGTLVTVSS VL: DIVLTQSPDSLAVSLGERATINCKASQSVDFDGDSYMNWYQQKPGQPPKVLIYAASNLESGIPARFSGSGSGTDFTLTINSLEAEDAATYYCQQSNEDPWTFGGGTKVEIK | 0.01
AC10 H3.23/L3 (antibody, IgG1, name in Kabat numbering, V domains shown) VH: QIQLVQSGPEVKKPGASVKVSCKASGYTFTDYYITWVRQAPGQGLEWMGRIYPGSGNTKYNEKFQGRFVFSVDTSASTAYLQISSLKAEDTAVYFCANYGNYWFAYWGQGTLVTVSS VL: DIVLTQSPDSLAVSLGERATINCKASQSVDFDGDSYMNWYQQKPGQPPKVLIYAASNLESGIPARFSGSGSGTDFTLTINSLEAEDAATYYCQQSNEDPWTFGGGTKVEIK | 0.16

From patent US7657380
